Test results reported in US20200199213A1 (Eli Lilly, published 2020).
Where a chain is given by its changes, count along the chain named. Names and notes keep the numbering of the source. Blank lines part the entries; values can stand above or below the binder they belong to.

What was measured:
human ANGPTL8 [1] = target: T1, human ANGPTL8 (human, UniProt Q6UXH0 22-198); test: single point ELISA
T1 construct: Biotinylated in the ELISA assays; also called hANGPTL8; free ANGPTL8
T1 sequence: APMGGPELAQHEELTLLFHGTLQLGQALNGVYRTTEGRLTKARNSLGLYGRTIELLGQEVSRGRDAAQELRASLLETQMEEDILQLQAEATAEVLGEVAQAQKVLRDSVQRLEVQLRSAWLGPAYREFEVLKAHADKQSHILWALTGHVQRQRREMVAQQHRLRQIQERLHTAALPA
Experimental: (§1) Single Point ELISA (SPE) Assay: Ab binding selectivity to either the ANGPTL3/8 complex, free ANGPTL3 or free ANGPTL8 is initially verified using standard ELISA assays in a single point format. […] IgG secreted into supernatants after expression in CHO cells are then captured to the assay plate. Biotinylated antigen is added at a concentration of 25 nM to allow for Ab/antigen binding. Ab/antigen complexes are detected after adding alkaline phosphatase-conjugated neutravidin and alkaline phosphatase substrate, and subsequent measurement of the optical density at 560 nm. Positive binding is determined by a signal greater than 3 fold over the non-binding background signal.

human ANGPTL3 [2] = target: T2, human ANGPTL3 (human, UniProt Q9Y5C1 17-460); test: single point ELISA
T2 construct: Biotinylated in the ELISA assays; also called hANGPTL3; free ANGPTL3
T2 sequence: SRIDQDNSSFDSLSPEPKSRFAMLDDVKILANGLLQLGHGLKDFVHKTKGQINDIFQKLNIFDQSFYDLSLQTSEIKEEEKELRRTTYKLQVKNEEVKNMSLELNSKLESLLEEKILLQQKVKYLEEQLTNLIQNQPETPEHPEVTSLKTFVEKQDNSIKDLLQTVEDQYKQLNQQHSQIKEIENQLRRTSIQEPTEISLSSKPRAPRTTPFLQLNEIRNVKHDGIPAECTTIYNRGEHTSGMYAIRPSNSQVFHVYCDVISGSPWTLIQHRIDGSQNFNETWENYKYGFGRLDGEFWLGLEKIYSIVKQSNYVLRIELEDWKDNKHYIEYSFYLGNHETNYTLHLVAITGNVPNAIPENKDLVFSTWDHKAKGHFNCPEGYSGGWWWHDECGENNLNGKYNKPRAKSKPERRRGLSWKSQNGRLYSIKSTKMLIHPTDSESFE
Experimental: as §1

human ANGPTL8 [3] = target: T1, human ANGPTL8; test: single point ELISA; IgG captured by anti-human Fc; biotinylated antigen at 25 nM
Experimental: as §1

human ANGPTL3 [4] = target: T2, human ANGPTL3; test: as above
Experimental: as §1

human ANGPTL3/8 complex = target: T3, human ANGPTL3/8 complex (human, UniProt Q9Y5C1 17-460; Q6UXH0 22-198, limits assumed); test: as above
T3 construct: also called hANGPTL3/8 complex; ANGTPL3/8 complex
T3 sequence 1: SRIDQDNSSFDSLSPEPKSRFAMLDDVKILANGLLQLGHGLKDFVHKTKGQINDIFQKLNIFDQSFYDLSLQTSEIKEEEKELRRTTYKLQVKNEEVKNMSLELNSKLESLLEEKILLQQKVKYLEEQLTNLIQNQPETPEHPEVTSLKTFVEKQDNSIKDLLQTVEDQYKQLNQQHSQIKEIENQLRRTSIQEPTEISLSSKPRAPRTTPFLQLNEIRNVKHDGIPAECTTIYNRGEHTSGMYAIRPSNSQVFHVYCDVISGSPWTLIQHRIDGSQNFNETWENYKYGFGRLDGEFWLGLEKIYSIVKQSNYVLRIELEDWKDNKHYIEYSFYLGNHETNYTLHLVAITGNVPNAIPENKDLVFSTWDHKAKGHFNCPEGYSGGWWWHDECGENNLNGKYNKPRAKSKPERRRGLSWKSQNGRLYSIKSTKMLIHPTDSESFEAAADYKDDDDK
T3 sequence 2: T1 sequence
Experimental: as §1

[5] = target: T4, cynomolgus ANGPTL3/8 complex (cynomolgus, UniProt A0A2K5UDC5 17-460; A0A2K5WWS3 22-198); test: SPR, Biacore T200; Ab captured on Human Fab Binder, complex injected; pH 7.4, 25 C
T4 construct: also called cyno ANGPTL3/8
T4 sequence 1: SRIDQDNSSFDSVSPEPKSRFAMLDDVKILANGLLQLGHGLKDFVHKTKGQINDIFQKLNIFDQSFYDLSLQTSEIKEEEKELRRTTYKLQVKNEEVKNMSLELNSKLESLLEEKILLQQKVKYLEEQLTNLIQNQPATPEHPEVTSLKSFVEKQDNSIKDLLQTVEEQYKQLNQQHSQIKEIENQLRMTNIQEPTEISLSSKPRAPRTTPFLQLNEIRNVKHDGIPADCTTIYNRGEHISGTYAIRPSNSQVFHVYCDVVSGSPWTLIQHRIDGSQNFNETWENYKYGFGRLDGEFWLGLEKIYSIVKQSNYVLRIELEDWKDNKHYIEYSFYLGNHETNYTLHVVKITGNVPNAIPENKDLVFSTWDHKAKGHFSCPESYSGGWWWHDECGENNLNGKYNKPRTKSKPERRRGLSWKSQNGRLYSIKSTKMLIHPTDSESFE
T4 sequence 2: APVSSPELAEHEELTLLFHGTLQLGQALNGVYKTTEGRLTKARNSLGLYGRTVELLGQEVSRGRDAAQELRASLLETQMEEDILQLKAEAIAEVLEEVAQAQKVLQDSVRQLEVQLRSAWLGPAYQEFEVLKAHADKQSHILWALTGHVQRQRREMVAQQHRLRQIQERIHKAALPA

human ANGPTL8 [6] = target: T1, human ANGPTL8; test: ELISA, antigen titration
Experimental: (§2) ELISA Assay: Ab binding selectivity to either the ANGPTL3/8 complex, free ANGPTL3 or free ANGPTL8 is verified using standard ELISA assays. […] Ab from CHO supernatants after expression in CHO cells is then captured to the assay plate and results is an Ab concentration of 2 μg/ml. Biotinylated antigen (ANGPTL3, ANGPTL8 or ANGPTL3/8 complex) is added at varying concentrations by serial dilution to allow for Ab/antigen binding. Ab/antigen complexes are detected after the addition of alkaline phosphatase-conjugated neutravidin, and alkaline phosphatase substrate, and subsequent measurement of the optical density at 560 nm.

human ANGPTL3 [7] = target: T2, human ANGPTL3; test: ELISA, antigen titration
Experimental: as §2

binding result (human ANGPTL8 [6]): no binding (tested: 100 nM antigen)
binding result (human ANGPTL3 [7]): no binding (tested: 100 nM antigen)
OD at 560 nm (human ANGPTL8 [3]): 0.118 OD 560 nm
OD at 560 nm (human ANGPTL3 [4]): 0.076 OD 560 nm
OD at 560 nm (human ANGPTL3/8 complex): 0.898 OD 560 nm
B2: Ab with LC variant having a D33A mutation (SEQ ID NO:22) and a HC of SEQ ID NO:6 (antibody, human IgG4 S228P, kappa, F234A L235A, V domains shown)
VH: QVTLKESGPTLVKPTQTLTLTCTFSGFSLSISGVGVGWIRQPPGKALEWLALIYRNDDKRYSPSLKSRLTITKDTSKNQVVLTLTNMDPVDTATYYCARTYSSGWYGNWFDPWGQGTLVTVSS
VL: DIVMTQTPLSLPVTPGEPASISCRSSQSLLDSADGNTYLDWYLQKPGQSPQLLIYMLSYRASGVPDRFSGSGSGTDFTLKISRVEAEDVGIYYCMQRIEFPLTFGGGTKVEIKR
notes: also called D33A Variant Ab; D33A Ab

binding result (human ANGPTL8 [6]): no binding (tested: 100 nM antigen)
binding result (human ANGPTL3 [7]): no binding (tested: 100 nM antigen)
OD at 560 nm (human ANGPTL8 [3]): 0.072 OD 560 nm
OD at 560 nm (human ANGPTL3 [4]): 0.058 OD 560 nm
OD at 560 nm (human ANGPTL3/8 complex): 0.928 OD 560 nm
B4: Ab with LC variant having a D31S mutation (SEQ ID NO:21) and a HC of SEQ ID NO:6 (antibody, human IgG4 S228P, kappa, F234A L235A, V domains shown)
VH: B2 VH
VL: B2 VL with D31S, A33D
notes: also called D31S Variant Ab; D31S Ab

The remaining lines, values behind:

B1: anti-ANGPTL3/8 complex Ab having a LC of SEQ ID NO:5 and a HC of SEQ ID NO:6 (antibody, human IgG4 S228P, kappa, F234A L235A, V domains shown)
VH: B2 VH
VL: B2 VL with A33D
notes: In the ELISA assays tested as IgG from CHO supernatants; also called the Ab
binding result (human ANGPTL8 [1]): no binding
binding result (human ANGPTL3 [2]): no binding
OD at 560 nm (human ANGPTL8 [3]): 0.087 OD 560 nm
OD at 560 nm (human ANGPTL3 [4]): 0.074 OD 560 nm
OD at 560 nm (human ANGPTL3/8 complex): 2.3 OD 560 nm
Kd [5]: 0.213 nM
koff [5]: 9.91e-05 s⁻¹
kon [5]: 491000 M⁻¹ s⁻¹

B3: Ab with LC variant having a E99Q mutation (SEQ ID NO:25) and a HC of SEQ ID NO:6 (antibody, human IgG4 S228P, kappa, F234A L235A, V domains shown)
VH: B2 VH
VL: B2 VL with A33D, E99Q
notes: also called E99Q Variant Ab; E99Q Ab
binding result (human ANGPTL8 [1]): no binding
binding result (human ANGPTL3 [2]): no binding
OD at 560 nm (human ANGPTL8 [3]): 0.1 OD 560 nm
OD at 560 nm (human ANGPTL3 [4]): 0.083 OD 560 nm
OD at 560 nm (human ANGPTL3/8 complex): 1.54 OD 560 nm
